Experimental data taken from patent publication US7645871B2, “Tumor inhibition by modulating sprouty expression of activity” (Michigan State University, priority 2005, dated 2010).

Assays:
[1] = test system: PH3MT cells; experiment: AG1478 inhibitor study, cell growth in 0.1% serum; type: cell-based, human
Protocol: For AG1478 inhibitor studies, cells were plated at a density of 5,000 cells per 60 mm-diameter dish in medium containing 0.1% serum, and were allowed to grow in the presence or absence of AG1478 at a concentration of 6 μM. Cell growth was monitored by measuring the number of cells every two days. Each experimental repetition included at least two replicates for each cell strain analyzed.
The activation of Ras oncogenes enables cellular growth in the absence of exogenous growth factors (Medema et al. (1993) Crit. Rev. Oncog. 4; Shields et al. (2000) Trends Cell. Biol. 10: 147-154). To determine if the activity of EGFR is necessary for the growth factor independence of H-Ras-transformed cells, measurements were made to determine the ability of PH3MT cells to grow in the presence of the AG1478 inhibitor, a specific inhibitor of EGFR tyrosine kinase activity (Levitzki et al. (1995) Science 267:1782-1788).

[2] = test system: HRas-transformed cells (PH3MT); experiment: UV-induced apoptosis assay (AnnexinV-FITC, flow cytometry); type: cell-based, human; details: Ras-transformed cells treated with AG1478
Protocol: Apoptosis was detected by staining the cells with AnnexinV-FITC (BD Biosciences, San Jose, Calif.) according to manufacturer's recommendations. Briefly, cells were plated at a density of 2×10^5 cells/60 mm-dish. 16 hours after plating, the cells were irradiated with UV at a dose of 30-60 J/m^2 and incubated at 37° C. under normal culture conditions for varying time periods. Subsequently, the cells were collected, washed twice with AnnexinV binding buffer and incubated with AnnexinV-FITC at room temperature for 15 mins. The cells were also stained with propidium iodide (PI) to distinguish between live and dead cells. AnnexinV-FITC positive cells were determined by flow cytometry under standard conditions. Cells that stained positively for AnnexinV were considered apoptotic, while cells that were positive for both annexinV and PI were not considered apoptotic. All experiments were repeated at least three times. Ras protects NIH3T3 fibroblasts from apoptosis induced by DNA-damage (Franke et al. (2003) Oncogene 22:8983-98). Experiments were conducted to determine whether this effect was produced in an H-Ras-transformed cell strain (PH3MT), which has a higher expression of Spry2 compared to its parental cell strain (MSU-1.1) (FIG. 10A). In these experiments, both MSU-1.1 and PH3MT cells were plated at a density of 2×10^5 cells per dish and allowed to grow overnight. […]

[3] = test system: ERK; experiment: EGF-induced activation of ERK (pERK Western blot); type: cell-based, human; details: serum starved, EGF 100 ng/ml; vs scrambled RNAi strain PH3MT-SC
Protocol: Whole cell lysates were prepared as described in Lou et al. (2005) Cancer Res. 65:1007-1017. The protein content was quantified with Coomassie protein reagent from Pierce (Rockford, Ill.). Whole cell lysate (50 μg) was separated by SDS-PAGE. The protein was transferred to polyvinylidene fluoride membrane (Millipore, Billerica, Mass.), and immunoblotting was carried out using standard techniques. The signal was detected with the SuperSignal® reagent (Pierce). Antibodies against EGFR, ERK, pERK, c-Cbl, and H-Ras were purchased from Santa Cruz Biotechnology, Inc. (Santa Cruz, Calif.); Sprouty2 from Calbiochem (San Diego, Calif.); Pan-Ras from Cytoskeleton, Inc. (Denver, Colo.) and Ku80 from Serotec (Raleigh, N.C.). The Ku80 protein expression was used as a loading control.
To determine if the expression of Sprouty2 in PH3MT cells was associated with an increase in the activation of the RAS/MAPK cascade, EGF-induced activation of ERK was examined by Western blotting with a phosphorylation-specific antibody.

[4] = test system: PH3MT cells; experiment: Tumorigenicity assay in athymic mice; type: in vivo; details: one million cells per site s.c., at least 6 months
Protocol: Cells were assayed for their ability to form tumors in athymic mice as described in Lou et al. (2005) Cancer Res. 65:1007-1017. The mice were examined weekly for tumor growth, and the tumors were removed when they reached 1 cm in diameter. In the absence of tumor formation six months after the injection, the mice were sacrificed.
When these same cell strains were compared for their ability to form tumors in athymic mice (Table 1), the control cell strains (PH3MT-VC and PH3MT-SC) formed 0.5 cm^3 tumors in 21 days (12/12 tumors formed per cell strain).

[5] = test system: HRas/c-Cbl; experiment: Co-immunoprecipitation of c-Cbl with HRas; type: cell-based, human; details: PH3MT-2A3 vs control cells, anti-HRas immunoprecipitation
Protocol: Generally, in experiments employing immunoprecipitation, whole cell lysates (250 μg) were precleared with an appropriate IgG antibody for 30 mins., then incubated with an antibody specific to HRas for 2 hrs., followed by incubation with protein-G for 1 hr. to overnight at 4° C. When an Hras-agarose conjugate was used (Ras-cCbl/CIN85), the lysates were incubated with the agarose conjugate for 3 hrs. to overnight. The immunoprecipitated fraction was washed several times with lysis buffer and assayed by Western blotting. Experiments were generally conducted in replicate, e.g., experiments were repeated 3 to 4 times for those examining Ras-Spry2 and Ras-c-Cbl interactions, and two times for those examining the Ras-CIN85 interaction.

[6] = test system: Rac1; experiment: Rac1 activation assay (PAK-CRIB pull-down); type: cell-based, human; details: PH3MT-SC (endogenous Spry2) vs PH3MT-2A3
Protocol: Pull-down assays were performed using whole cell lysates (2 mg). The lysates were pulled down with PAK-Cdc42/Rac1 interacting region (CRIB)-conjugated beads from Cytoskeleton (Denver, Colo.) using methods provided by the manufacturer. […] These experiments were repeated 3 times in H-Ras-transformed cells and twice in immortalized fibroblasts.
To determine whether Spry2 plays a role in the activation of Rac1, a Rac1 activation assay was carried out to determine the level of activated Rac1 in control HRas-transformed cells (PH3MT-SC) and in HRas-transformed cells with down regulated Spry2 (PH3MT-2A3).

[7] = test system: PH3MT cells; experiment: Stress fiber staining (phalloidin); type: cell-based, human; details: PH3MT-2A3 vs PH3MT-SC
Protocol: Stress fibers were detected with Alexa-fluor 488 conjugated phalloidin stain from Invitrogen (Carlsbad, Calif.), which was used according to the manufacturer's instructions. Briefly, cells at log phase were fixed in 10% normal buffered formalin solution for 10 mins. The fixed cells were washed twice in phosphate buffered saline (PBS), and then treated with 0.1 Triton X-100 in PBS for 3-5 mins. at room temperature. Subsequently, the cells were incubated with blocking solution (1% BSA in PBS) for 20 mins. at room temperature. Finally, the cells were incubated with phalloidin stain for 30 mins. and analyzed by fluorescent microscopy.
One function of Rac1 is to inhibit stress fiber formation (Burridge et al. (2004) Cell 116(2): 167-179). […] This is consistent with the lower level of Rac1 activation in these cells (FIG. 12B). Accordingly, one assay that can be used to analyze the effects of a compound that affects Spry2 expression or activity is to assay stress fiber formation in the presence and absence or a compound in a cell that can express Rac1.

[8] = test system: MDM2; experiment: MDM2 level and Ser166 phosphorylation, Western blot; type: cell-based, human; details: PH3MT-2A3 vs PH3MT-SC
Protocol: (§1) Whole cell lysates were prepared as described in Lou et al. ((2005) Cancer Res. 65:1007-1017). Protein concentration was quantified with Coomasie protein reagent from Pierce (Rockford, Ill.). Whole cell lysates (50 μg) were separated by SDS-PAGE. The electrophoresed proteins were transferred to a polyvinylidene fluoride membrane (Millipore, Billerca, Mass.), and immunoblotted using standard techniques. Antibodies against pp 85, p85, c-Cbl, Mdm2, p53 and H-Ras were purchased form Santa Cruz (Santa Cruz, Calif.); Spry2 from Calbiochem (San Diego, Calif.); pAkt and Akt from Cell Signaling (Danver, Mass.) and Ku80 from Serotec (Raleigh, N.C.). Ku80 protein was used as a loading control. Label signals were detected with the SuperSignal reagent (Pierce, Rockford, Ill.).
(§2) The MDM2/p53 pathway plays a critical role in UV-induced apoptosis (Lakin et al. (1999) Oncogene 18(53):7644-7655). Akt phosphorylates MDM2 on serine residue 166, resulting in the stabilization of MDM2 (Ogawara et al. (2002) J. Biol. Chem., 277(24):21843-21850). This enhances the ubiquitination of p53 by MDM2, which is followed by degradation of the p53. […] To test this proposal, the amount of MDM2 phosphorylated at Ser166 was determined in a cell strain with down regulated Spry2 (PH3MT-2A3) and in a control cell strain (PH3MT-SC). […]

[9] = test system: p53; experiment: p53 level, Western blot; type: cell-based, human; details: PH3MT-2A3 vs PH3MT-SC
Protocol: as §1, §2

COc1cc2ncnc(Nc3cccc(Cl)c3)c2cc1OC [AG1478]
ability of cells to grow in medium with reduced serum ([1]; PH3MT cells, 0.1% serum, AG1478 6 μM): decrease in the ability of H-Ras-transformed cells to grow in medium with reduced serum | decrease in growth compared with effect on MSU-1.1 cells ([1]; PH3MT vs MSU-1.1, AG1478 6 μM, p<0.001): significantly greater than the corresponding effect of the same inhibitor on the MSU-1.1 cells | number of cells undergoing apoptosis in response to UV radiation [2]: increased the number of Ras-transformed cells undergoing apoptosis

B1: Spry2-shRNA-2: Sprouty2-specific shRNA construct targeting position 399 of the Spry2 coding region; PH3MT-2A3 and PH3MT-2B9 cell strains were derived with it (nucleic acid)
chain: GATCCCCGAGACTGCTAGGATCATCCTTCAAGAGAGGAGTGATCCTAGCAGCTCTTTTTGGAAA
EGF-induced ERK activation [3]: decreased levels of ERK activation | Tumor incidence (ratio of tumors formed to sites injected) ([4]; cell strain PH3MT-2A3 (derived with Spry2-shRNA-2)): 0/12 | Tumor incidence (ratio of tumors formed to sites injected) ([4]; cell strain PH3MT-2B9 (derived with Spry2-shRNA-2)): 0/12 | binding of endogenous c-Cbl to HRas [5]: abolished | level of active Rac1 [6]: significantly higher level of active Rac1, compared to cell strain with down-regulated Spry2 expression | stress fiber formation [7]: more pronounced stress fibers | level of MDM2 following UV treatment [8]: decrease in the level of MDM2 following UV treatment | level of p53 following UV treatment [9]: higher

B2: Spry2-shRNA-5: Sprouty2-specific shRNA construct targeting position 492 of the Spry2 coding region; PH3MT-5A3 cell strain was derived with it (nucleic acid)
chain: GATCCCCGCCACTGAGCAAGGAAGATTTCAAGAGAATCTTCCTTGCTCAGTGGCTTTTTGGAAA
Tumor incidence (ratio of tumors formed to sites injected) ([4]; cell strain PH3MT-5A3 (derived with Spry2-shRNA-5)): 0/12
